Measurements from paper PMC3606058 (Structure (London, England : 1993), 2013).

Target: T1, Pf Cmr2dHD (Pf1129), HD-domain-deleted Cmr2, N-terminally poly-histidine tagged (Pyrococcus furiosus, UniProt Q8U1S6 213-871)
T1 sequence (looked up): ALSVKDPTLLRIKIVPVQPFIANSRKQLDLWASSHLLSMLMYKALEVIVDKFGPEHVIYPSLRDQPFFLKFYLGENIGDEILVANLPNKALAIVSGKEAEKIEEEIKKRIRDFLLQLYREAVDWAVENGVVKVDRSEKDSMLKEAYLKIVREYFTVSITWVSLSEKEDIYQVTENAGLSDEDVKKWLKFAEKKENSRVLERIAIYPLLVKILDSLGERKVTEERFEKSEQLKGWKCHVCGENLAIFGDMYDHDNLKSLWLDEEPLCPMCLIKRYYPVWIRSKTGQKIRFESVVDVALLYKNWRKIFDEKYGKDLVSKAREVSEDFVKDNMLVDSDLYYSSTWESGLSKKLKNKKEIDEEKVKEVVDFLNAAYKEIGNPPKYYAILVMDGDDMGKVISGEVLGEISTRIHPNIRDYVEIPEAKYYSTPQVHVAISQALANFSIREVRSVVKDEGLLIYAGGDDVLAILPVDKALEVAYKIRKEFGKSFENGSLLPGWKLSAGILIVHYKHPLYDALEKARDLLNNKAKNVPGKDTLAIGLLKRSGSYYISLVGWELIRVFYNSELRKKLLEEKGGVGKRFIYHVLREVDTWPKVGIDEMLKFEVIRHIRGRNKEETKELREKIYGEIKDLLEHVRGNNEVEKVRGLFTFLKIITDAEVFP
Experiment: crystal structure

stoichiometry N: 1 Cmr3:Cmr2dHD
B1: Pf Cmr3 (Pf1128), untagged (natural protein, Pyrococcus furiosus)
chain: MIEVTFTPYDVLLFRESRPFDAGSESVARSIIPLPQTVAGAIRTLLFYKGLKNCVGVGEEEPEFTLVGIAIGTEKGRIYPLPFNIIKSEKFYKVVNPGRFLGKLILPPKGKYKSGYVTESILEKYLKGELKEVEENKVIRIEKEKRIGIKLSREKKVVEEGMLYTVEFLRIEKIYAWIEDPGCGIKDILSSYEFLTLGGESRVAFVEVDDKTPDIFNRELGSTKKALFYFSTPTIGKVGEIVQELEKRLNAKIDDYLLVSSRPTAISGWDMHEKKPKGTKFAIPPGSVLFVEFKEEVEVPPYIKLGKLKKLGYGLALGGIWE
